Earlier results, collected in patent KR20200047176A, “투라노스의 제조방법” (주식회사 삼양사, priority 2018, dated 2020).

Conditions: 2 M sucrose substrate

B1: NpAS: amylosucrase from Neisseria polysaccharea, known prior enzyme (protein, UniProt Q9ZEU2 1-636, looked up)
Amylosucrase: MLTPTQQVGLILQYLKTRILDIYTPEQRAGIEKSEDWRQFSRRMDTHFPKLMNELDSVYGNNEALLPMLEMLLAQAWQSYSQRNSSLKDIDIARENNPDWILSNKQVGGVCYVDLFAGDLKGLKDKIPYFQELGLTYLHLMPLFKCPEGKSDGGYAVSSYRDVNPALGTIGDLREVIAALHEAGISAVVDFIFNHTSNEHEWAQRCAAGDPLFDNFYYIFPDRRMPDQYDRTLREIFPDQHPGGFSQLEDGRWVWTTFNSFQWDLNYSNPWVFRAMAGEMLFLANLGVDILRMDAVAFIWKQMGTSCENLPQAHALIRAFNAVMRIAAPAVFFKSEAIVHPDQVVQYIGQDECQIGYNPLQMALLWNTLATREVNLLHQALTYRHNLPEHTAWVNYVRSHDDIGWTFADEDAAYLGISGYDHRQFLNRFFVNRFDGSFARGVPFQYNPSTGDCRVSGTAAALVGLAQDDPHAVDRIKLLYSIALSTGGLPLIYLGDEVGTLNDDDWSQDSNKSDDSRWAHRPRYNEALYAQRNDPSTAAGQIYQGLRHMIAVRQSNPRFDGGRLVTFNTNNKHIIGYIRNNALLAFGNFSEYPQTVTAHTLQAMPFKAHDLIGGKTVSLNQDLTLQPYQVMWLEIA
**Q.** For B1, which turanose conversion is on record?
**A.** Its turanose conversion is 50.9%.
